Experiments:
[1] = system: LEF-4 L105F L105F (Autographa californica nuclear polyhedrosis virus); conditions: 5'-triphosphate; RNA triphosphatase at nonpermissive temperature (33 C); equal to wild type at 25 C
[2] = system: LEF-4 R51A R51A (Autographa californica nuclear polyhedrosis virus); conditions: 5'-triphosphate; RNA triphosphatase
[3] = system: LEF-4 E9/11A E9A,E11A (Autographa californica nuclear polyhedrosis virus); conditions: 5'-triphosphate; RNA triphosphatase reduced 100-fold
[4] = system: LEF-4 wild type (E. coli) (Autographa californica nuclear polyhedrosis virus); conditions: 5'-triphosphate; RNA triphosphatase, 1 uM RNA
[5] = system: LEF-4 (Autographa californica nuclear polyhedrosis virus); conditions: 5'-triphosphate; RNA 5'-triphosphatase turnover, 0.3 mM MnCl2, 30 C
[6] = target: baculovirus RNA polymerase complex (LEF-8/LEF-9/LEF-4/p47) (Autographa californica nuclear polyhedrosis virus) (UniProt P41452+P41465+P41477+P34051); conditions: 5'-triphosphate; RNA 5'-triphosphatase turnover, 0.3 mM MnCl2, 30 C
UniProt P41452, sequence (P41452 whole entry, chain 1 of 4): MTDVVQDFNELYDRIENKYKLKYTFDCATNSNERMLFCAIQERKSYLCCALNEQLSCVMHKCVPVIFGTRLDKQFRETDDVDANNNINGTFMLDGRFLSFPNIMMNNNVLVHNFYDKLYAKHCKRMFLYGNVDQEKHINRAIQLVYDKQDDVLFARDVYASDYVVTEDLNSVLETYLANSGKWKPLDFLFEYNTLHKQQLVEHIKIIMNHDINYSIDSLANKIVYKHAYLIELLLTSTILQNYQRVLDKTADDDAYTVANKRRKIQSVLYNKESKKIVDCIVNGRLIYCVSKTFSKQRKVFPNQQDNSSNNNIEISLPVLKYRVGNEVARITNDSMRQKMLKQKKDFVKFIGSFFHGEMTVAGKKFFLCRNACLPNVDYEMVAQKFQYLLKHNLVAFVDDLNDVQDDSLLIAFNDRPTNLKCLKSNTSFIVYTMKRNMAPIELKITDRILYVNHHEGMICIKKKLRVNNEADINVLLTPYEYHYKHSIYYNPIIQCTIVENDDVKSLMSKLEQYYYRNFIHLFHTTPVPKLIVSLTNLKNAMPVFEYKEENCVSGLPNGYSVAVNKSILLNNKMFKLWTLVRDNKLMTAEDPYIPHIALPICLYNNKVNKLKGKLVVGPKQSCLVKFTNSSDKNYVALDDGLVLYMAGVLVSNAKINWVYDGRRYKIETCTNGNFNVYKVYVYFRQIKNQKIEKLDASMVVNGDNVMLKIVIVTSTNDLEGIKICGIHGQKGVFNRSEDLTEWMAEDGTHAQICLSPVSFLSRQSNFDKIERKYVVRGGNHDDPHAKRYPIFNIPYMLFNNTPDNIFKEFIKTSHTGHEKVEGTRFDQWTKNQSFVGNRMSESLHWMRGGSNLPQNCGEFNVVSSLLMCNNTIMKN
UniProt P41452, sequence (P41465 whole entry, chain 2 of 4): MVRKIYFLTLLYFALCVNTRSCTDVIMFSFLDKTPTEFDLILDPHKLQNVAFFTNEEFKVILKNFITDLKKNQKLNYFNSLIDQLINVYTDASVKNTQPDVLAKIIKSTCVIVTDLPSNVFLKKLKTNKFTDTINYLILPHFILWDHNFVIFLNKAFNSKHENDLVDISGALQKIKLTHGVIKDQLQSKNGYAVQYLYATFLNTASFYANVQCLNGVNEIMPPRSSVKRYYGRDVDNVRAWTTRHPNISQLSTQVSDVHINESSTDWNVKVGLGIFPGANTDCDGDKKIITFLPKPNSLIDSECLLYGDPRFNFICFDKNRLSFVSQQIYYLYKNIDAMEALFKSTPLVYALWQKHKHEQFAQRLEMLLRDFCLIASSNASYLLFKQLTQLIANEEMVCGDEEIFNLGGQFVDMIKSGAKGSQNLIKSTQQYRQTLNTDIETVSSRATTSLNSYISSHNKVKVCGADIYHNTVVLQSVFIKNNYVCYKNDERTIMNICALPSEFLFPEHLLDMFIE
UniProt P41452, sequence (P41477 whole entry, chain 3 of 4): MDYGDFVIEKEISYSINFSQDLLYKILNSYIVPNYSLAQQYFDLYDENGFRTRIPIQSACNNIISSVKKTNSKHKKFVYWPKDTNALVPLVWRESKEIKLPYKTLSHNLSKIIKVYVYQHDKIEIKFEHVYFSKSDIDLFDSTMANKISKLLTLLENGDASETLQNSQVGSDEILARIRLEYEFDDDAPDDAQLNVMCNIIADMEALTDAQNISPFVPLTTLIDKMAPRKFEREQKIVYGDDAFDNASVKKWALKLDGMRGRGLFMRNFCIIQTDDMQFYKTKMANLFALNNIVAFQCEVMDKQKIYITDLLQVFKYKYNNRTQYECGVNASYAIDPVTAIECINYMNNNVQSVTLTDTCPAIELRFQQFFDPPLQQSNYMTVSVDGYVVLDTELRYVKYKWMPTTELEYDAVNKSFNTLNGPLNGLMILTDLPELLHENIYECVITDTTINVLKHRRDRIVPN
UniProt P41452, sequence (P34051 whole entry, chain 4 of 4): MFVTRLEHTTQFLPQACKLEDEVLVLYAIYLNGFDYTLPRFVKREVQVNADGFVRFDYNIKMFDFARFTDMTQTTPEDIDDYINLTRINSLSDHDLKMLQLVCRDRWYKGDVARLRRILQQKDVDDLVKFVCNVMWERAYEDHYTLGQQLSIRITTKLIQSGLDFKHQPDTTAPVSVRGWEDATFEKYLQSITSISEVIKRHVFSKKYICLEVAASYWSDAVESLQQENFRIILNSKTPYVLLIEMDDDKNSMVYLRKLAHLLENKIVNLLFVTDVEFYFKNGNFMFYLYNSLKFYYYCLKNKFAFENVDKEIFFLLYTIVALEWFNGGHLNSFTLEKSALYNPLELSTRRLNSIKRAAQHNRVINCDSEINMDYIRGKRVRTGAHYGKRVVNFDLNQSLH

## gamma-32P 5'-triphosphate 150-nt T3 transcript of pBluescript KS
[1]
  binding signal (% of wild type): 74
[2]
  RNA triphosphatase activity (% of wild type): 2.5
[3]
  binding signal (fraction of wild type): 0.01
[4]
  activity (pmol Pi/pmol per 15 min): 210
[5]
  activity: 0.31 fmol/s/fmol
[6]
  activity: 0.16 fmol/s/fmol
